Assay results as given in US20030027165A1 (published 2003).

T1: pol κ, DNA polymerase κ, the primary protein product of POLK (human, UniProt Q9UBT6 1-870)
T1 construct: not shown: N-terminal yeast two-hybrid fusion part from the FLAG-modified pGBT9 or pGAD424 vector (Clontech) plus FLAG peptide; No
T1 sequence (looked up): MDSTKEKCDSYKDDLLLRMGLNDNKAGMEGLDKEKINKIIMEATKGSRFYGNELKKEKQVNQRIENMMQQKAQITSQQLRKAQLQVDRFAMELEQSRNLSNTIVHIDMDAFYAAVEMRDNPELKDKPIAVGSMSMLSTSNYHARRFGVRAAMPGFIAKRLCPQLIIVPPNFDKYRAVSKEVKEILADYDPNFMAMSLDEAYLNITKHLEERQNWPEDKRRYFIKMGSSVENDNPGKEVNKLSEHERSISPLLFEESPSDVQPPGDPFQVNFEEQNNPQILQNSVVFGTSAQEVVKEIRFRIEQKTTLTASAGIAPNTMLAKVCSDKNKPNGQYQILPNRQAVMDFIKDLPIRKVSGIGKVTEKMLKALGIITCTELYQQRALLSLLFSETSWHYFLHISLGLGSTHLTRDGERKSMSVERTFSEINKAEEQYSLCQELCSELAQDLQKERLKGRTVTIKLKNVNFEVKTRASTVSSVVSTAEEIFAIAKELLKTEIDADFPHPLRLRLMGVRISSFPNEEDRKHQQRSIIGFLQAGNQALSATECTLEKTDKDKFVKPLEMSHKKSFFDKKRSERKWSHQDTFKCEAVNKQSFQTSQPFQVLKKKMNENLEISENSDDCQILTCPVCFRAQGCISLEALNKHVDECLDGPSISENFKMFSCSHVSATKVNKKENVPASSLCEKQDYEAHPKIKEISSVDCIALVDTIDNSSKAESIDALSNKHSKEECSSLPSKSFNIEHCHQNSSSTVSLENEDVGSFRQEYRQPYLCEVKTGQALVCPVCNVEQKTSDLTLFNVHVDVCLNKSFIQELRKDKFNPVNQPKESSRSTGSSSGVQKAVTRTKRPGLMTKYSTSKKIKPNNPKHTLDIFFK

T2: pol κ76, 76-kDa alternatively spliced isoform of DNA polymerase κ (human, UniProt Q9UBT6 1-870)
T2 construct: 672-residue open reading frame (GenBank AF315602), cloned by RT-PCR from human foreskin RNA with ON-DIN5'm and ON-DIN-THc; It was inserted BamHI/SalI into FLAG-modified pGBT9 and pGAD424; also called 76-kDa pol κ isoform; not shown: N-terminal yeast two-hybrid fusion part from the FLAG-modified pGBT9 or pGAD424 vector (Clontech) plus FLAG peptide; No
T2 sequence: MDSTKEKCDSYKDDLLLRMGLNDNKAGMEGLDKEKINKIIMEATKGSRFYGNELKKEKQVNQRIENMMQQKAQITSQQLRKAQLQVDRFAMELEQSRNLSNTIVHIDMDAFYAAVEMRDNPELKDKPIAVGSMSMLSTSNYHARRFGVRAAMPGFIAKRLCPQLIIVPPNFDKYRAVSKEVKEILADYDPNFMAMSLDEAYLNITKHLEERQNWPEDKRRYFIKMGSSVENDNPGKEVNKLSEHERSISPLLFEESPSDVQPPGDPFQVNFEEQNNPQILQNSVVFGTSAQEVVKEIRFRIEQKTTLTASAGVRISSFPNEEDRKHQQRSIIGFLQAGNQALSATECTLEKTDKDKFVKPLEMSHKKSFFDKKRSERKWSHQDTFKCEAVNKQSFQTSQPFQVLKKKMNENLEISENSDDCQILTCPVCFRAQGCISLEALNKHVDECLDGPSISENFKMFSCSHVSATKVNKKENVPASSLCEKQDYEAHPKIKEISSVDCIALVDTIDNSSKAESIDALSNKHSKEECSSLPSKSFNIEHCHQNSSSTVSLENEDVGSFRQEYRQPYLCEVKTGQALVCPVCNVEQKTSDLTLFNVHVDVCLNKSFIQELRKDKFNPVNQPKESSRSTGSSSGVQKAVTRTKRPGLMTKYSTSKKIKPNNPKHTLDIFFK


How the values were obtained:
[1] = target: T1, pol κ, DNA polymerase κ, the primary …; experiment: yeast two-hybrid
[2] = target: T2, pol κ76, 76-kDa alternatively spliced …; experiment: yeast two-hybrid

Row | binding result [1] | binding result [2] | Binder
1 | no binding | no binding | GPBPΔ26, alternatively spliced GPBP variant deleted for 26 amino acid residues (enzyme, The two-hybrid construct is not described; also called GPBP?26; GPBPD26) MSDNQSWNSSGSEEDPETESGPPVERCGVLSKWTNYIHGWQDRWVVLKNNALSYYKSEDETEYGCRGSICLSKAVITPHDFDECRFDISVNDSVWYLRAQDPDHRQQWIDAIEQHKTESGYGSESSLRRHGSMVSLVSGASGYSATSTSSFKKGHSLREKLAEMETFRDILCRQVDTLQKYFDACADAVSKDELQRDKVVEDDEDDFPTTRSDGDFLHSTNGNKEKLFPHVTPKGINGIDFKGEAITFKATTAGILATLSHCIELMVKREDSWQKRLDKETEKKRRTEEAYKNAMTELKKKSHFGGPDYEEGPNSLINEEEFFDAVEAALDRQDKIEEQSQSEKVRLHWPTSLPSGDAFSSVGTHRFVQKVEEMVQNHMTYSLQDVGGDANWQLVVEEGEMKVYRREVEENGIVLDPLKATHAVKGVTGHEVCNYFWNVDVRNDWETTIENFHVVETLADNAIIIYQTHKRVWPASQRDVLYLSVIRKIPALTENDPETWIVCNFSVDHDSAPLNNRCVRAKINVAMICQTLVSPPEGNQEISRDNILCKITYVANVNPGGWAPASVLRAVAKREYPKFLKRFTSYVQEKTAGKPILF
2 | no binding | no binding | Goodpasture antigen binding protein (GPBP) (enzyme, human, UniProt Q9Y5P4 1-624, looked up) MSDNQSWNSSGSEEDPETESGPPVERCGVLSKWTNYIHGWQDRWVVLKNNALSYYKSEDETEYGCRGSICLSKAVITPHDFDECRFDISVNDSVWYLRAQDPDHRQQWIDAIEQHKTESGYGSESSLRRHGSMVSLVSGASGYSATSTSSFKKGHSLREKLAEMETFRDILCRQVDTLQKYFDACADAVSKDELQRDKVVEDDEDDFPTTRSDGDFLHSTNGNKEKLFPHVTPKGINGIDFKGEAITFKATTAGILATLSHCIELMVKREDSWQKRLDKETEKKRRTEEAYKNAMTELKKKSHFGGPDYEEGPNSLINEEEFFDAVEAALDRQDKIEEQSQSEKVRLHWPTSLPSGDAFSSVGTHRFVQKPYSRSSSMSSIDLVSASDDVHRFSSQVEEMVQNHMTYSLQDVGGDANWQLVVEEGEMKVYRREVEENGIVLDPLKATHAVKGVTGHEVCNYFWNVDVRNDWETTIENFHVVETLADNAIIIYQTHKRVWPASQRDVLYLSVIRKIPALTENDPETWIVCNFSVDHDSAPLNNRCVRAKINVAMICQTLVSPPEGNQEISRDNILCKITYVANVNPGGWAPASVLRAVAKREYPKFLKRFTSYVQEKTAGKPILF
